Assay results: US12618835B2, “Multiplex microelectrode array for detection of proteases as biomarkers” (Kansas State University Research Foundation, priority 2021, dated 2026)
Where no end group is shown, it is not given here. [ ]: non-standard residue; d: D form. The star is where a group is joined. aminomethylferrocene = [Fe+2].c1cc[c-](CN*)c1.c1cc[cH-]c1; Ava = NCCCCC(=O)O

Biological target: T1, recombinant human cathepsin B (rhCB) (Homo sapiens, UniProt P07858)
T1 construct: purchased R&D Systems Inc. (Minneapolis, MN)
Experiment: Electrochemical (ACV) proteolysis of peptide-Fc on Au MEA by activated rhCB in different buffers, Example 3
Assay type: biochemical
Experimental: Gold MEA Functionalization. The diced Au MEA chip was sonicated in acetone for 5 min to remove the photoresist protection layer, followed by rinsing with methanol and subsequently with isopropanol for 30 seconds. The Au MEA was then rinsed with deionized water and blow-dried with N2. Prior to use, the Au MEA chip was mounted in a home-made electrochemical cell described in our previous report and electrochemically cleaned by cycling voltammetry (CV) between −0.60 to 0.70 V in 0.10 M phosphate buffer (0.038 M NaH2PO4 and 0.061 M Na2HPO4, pH=7.4) vs. a mercury/mercurous sulfate reference electrode (MSE) filled with a saturated K2SO4 solution (CH Instruments, Austin, TX). The cleaned Au MEA was then rinsed with deionized water and blow-dried with N2. All electrochemical protease detection measurements in this study used an in-house synthesized hexapeptide H-15 attached with a ferrocene (Fc) redox tag, as the substrate (referred to as “peptide-Fc” in this study). […] To functionalize the MEA with this peptide-Fc substrate, the chip was first incubated in 1.0 mM 6-mercapto-1-hexanol mixed with 0.2 mM 6-mercapto-1-hexanoic acid in deionized water for 40 min to form a close-packed self-assembled monolayer (SAM) due to thiol adsorption on Au surface. The formed alkanethiol layer serves as an insulator to reduce the background current while providing a ratio of about 1:5 between —COOH and —OH groups at the top surface. The electrode was then incubated in 2.0 mM peptide-Fc substrate mixed with 0.2 g/L 1-ethyl-3-(3-dimethylaminopropyl)carbodiimide (EDC) and 0.2 g/L N-hydroxysulfosuccinimide (Sulfo-NHS) as coupling agents for 2 hours at room temperature to form amide bonds between the amine group in the peptide-Fc substrate and the carboxylic acid group on the SAM surface. […] The functionalized chip was rinsed with deionized water for 30 seconds to remove the physically adsorbed molecules.
Electrochemical Experiments. Electrochemical experiments were performed on a specially designed electrochemical cell mounted on a large copper block for temperature control by circulating thermostatic silicone liquid through the internal channels. The thermal circulator (Julabo, Allentown, PA) was set to achieve a temperature of 38.6° C. Two buffer solutions, 0.5×PB (pH=7.4) and 25 mM MES (pH=5.0), were used. In some experiments, the rhCB was activated by incubation in 25 mM MES buffer (pH=5.0) containing 5 mM DTT for 15 min. […] Fc signal on the Au surface was detected by alternating current voltammetry (ACV) with an AC frequency of 300 Hz and a voltage amplitude of 100 mV on a DC ramp from −0.45 V to 0.20 V vs. MSE. Electrochemical measurements were performed using an IVIUM n-Stat potentiostat (Eindhoven, The Netherlands), which allows measurement of up to ten independent working electrodes simultaneously versus a common MSE reference electrode and a common Pt coil counter electrode.
Principle of the Electrochemical Detection of Protease Activity. The sensing principles are described in Example 1. As shown in the cyclic voltammogram (CV) in FIG. 27, the Fc tag in the peptide-Fc functionalized at the Au microelectrode surface can be oxidized into ferrocenium (Fc^+), giving a pair of well-defined redox waves centered at −0.15 V (vs. MSE). These peaks disappeared after the peptide-Fc substrate was cleaved by proteolysis. The surface concentration of peptide-Fc substrate ΓSs can be derived from the integrated area under the oxidation peak to give ΓSs=3.1 pmol/cm^2, corresponding to an average nearest-neighbor distance of 7.9 nm between the peptide-Fc. This low density allows easy access by the protease. As further shown in FIG. 28, the weak faradaic signal can be amplified using ACV, i.e., applying an AC voltage on top of a DC potential ramp from −0.45 V to 0.20 V (vs. MSE). […]

inverse decay constant (1/τ) (1.0 nM activated cathepsin B, 0.2×PBS pH=7.4): (7.65±0.42)×10^−4 s^−1 | average measured activity (1/τ) (1.0 nM activated cathepsin B, 0.5×PB pH=7.4, 8 channels): (42.1±3.7)×10^−4 s^−1 | inverse decay constant (1/τ) (1.0 nM activated cathepsin B, 0.5×PBS pH=7.4): (11.44±0.64)×10^−4 s^−1 | inverse decay constant (1/τ) (1.0 nM activated cathepsin B, 1×PBS pH=7.4): (4.2±1.1)×10^−4 s^−1 | activity in 0.5×PB relative to 25 mM MES buffer (1.0 nM activated cathepsin B, same Au MEA chip): ~40 times | LOD of activity (0.5×PB, 3σblank+(1/τ)blank): 0.000849 s⁻¹ | LOD of cathepsin B concentration (0.5×PB, 3σblank/m): 57.1 ± 0.41 pM | saturated 1/τ value (rhCB concentration above 1.0 nM, 0.5×PB): about 45×10^−4 s^−1
Substance: H2N-(CH2)4-CO-Pro-Leu-Ala-Phe-Val-Ala-NH-CH2-Fc ([Ava]PLAFVA-aminomethylferrocene) [Peptide H-15]
